Results taken from publication PMC3511536, “The Interleukin 3 Gene (IL3) Contributes to Human Brain Volume Variation by Regulating Proliferation and Survival of Neural Progenitors”.
Changes are numbered by the printed parent chain.

B1: IL3 promoter rs31480 T-allele (dsDNA)
DNA 1: TGCACATATAAGGCGGGAGGTTGTTGCCAACGCTTCAGAGC
DNA 2: GCTCTGAAGCGTTGGCAACAACCTCCCGCCTTATATGTGCA
B2: IL3 promoter rs31480 C-allele (dsDNA)
DNA 1: B1 DNA 1 with T21C
DNA 2: B1 DNA 2 with A21G

Target: SP1 (Homo sapiens, UniProt P08047 1-785)
Sequence (P08047 whole entry): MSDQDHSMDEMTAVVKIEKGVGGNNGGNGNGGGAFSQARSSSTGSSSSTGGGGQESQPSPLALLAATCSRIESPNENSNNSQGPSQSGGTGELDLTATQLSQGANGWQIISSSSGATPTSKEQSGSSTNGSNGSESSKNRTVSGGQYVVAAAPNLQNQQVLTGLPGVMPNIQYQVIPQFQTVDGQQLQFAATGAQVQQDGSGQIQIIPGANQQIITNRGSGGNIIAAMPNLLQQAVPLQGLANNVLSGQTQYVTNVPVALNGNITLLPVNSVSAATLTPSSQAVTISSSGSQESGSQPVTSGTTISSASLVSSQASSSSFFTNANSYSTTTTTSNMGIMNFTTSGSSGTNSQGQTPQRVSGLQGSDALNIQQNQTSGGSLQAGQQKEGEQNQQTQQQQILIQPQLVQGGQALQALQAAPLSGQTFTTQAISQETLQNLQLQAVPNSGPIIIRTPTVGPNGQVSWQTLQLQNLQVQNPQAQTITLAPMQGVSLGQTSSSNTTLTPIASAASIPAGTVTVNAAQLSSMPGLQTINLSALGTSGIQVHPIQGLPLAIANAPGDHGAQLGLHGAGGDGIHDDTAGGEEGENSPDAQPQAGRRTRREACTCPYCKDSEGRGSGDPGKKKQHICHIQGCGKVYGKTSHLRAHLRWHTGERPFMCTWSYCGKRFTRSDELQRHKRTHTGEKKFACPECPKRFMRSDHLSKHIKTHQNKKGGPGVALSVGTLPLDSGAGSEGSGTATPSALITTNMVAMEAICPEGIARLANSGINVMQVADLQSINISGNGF
Test: EMSA; 10 mM Tris-HCl pH 7.5, 1 mM MgCl2, 0.5 mM EDTA, 0.5 mM DTT, 50 mM NaCl, 50 ug/ml poly(dI-dC), 4% glycerol, 35 fmol probe, 20 min, room temperature; 6% native PAGE
Conditions: protein: recombinant; label: 3' biotin; blunt

Binder | binding result
B1 | binds
B2 | no binding
